Laboratory results from the supplement of paper PMC11246515.
± gives the standard deviation of the averaged measurements.

Assay: total protein half-life in vivo (active degradation + dilution); higher = more stable protein
[1] = E. coli NCM3722 delta-clpP, growth: N-lim chemostat, doubling time 6 h
[2] = E. coli NCM3722 delta-hslV, growth: N-lim chemostat, doubling time 6 h
[3] = E. coli NCM3722 delta-lon, growth: N-lim chemostat, doubling time 6 h
[4] = E. coli NCM3722 delta-smpB, growth: N-lim chemostat, doubling time 6 h
[5] = wild type E. coli NCM3722, growth: C-lim chemostat, doubling time 3 h
[6] = wild type E. coli NCM3722, growth: C-lim chemostat, doubling time 6 h
[7] = wild type E. coli NCM3722, growth: C-lim chemostat, doubling time 12 h
[8] = wild type E. coli NCM3722, growth: N-lim chemostat, doubling time 6 h
[9] = wild type E. coli NCM3722, growth: N-lim chemostat, doubling time 12 h
[10] = wild type E. coli NCM3722, growth: P-lim chemostat, doubling time 6 h
[11] = E. coli NCM3722 delta-clpP delta-lon delta-hslV, growth: N-lim chemostat, doubling time 6 h
[12] = wild type E. coli NCM3722, growth: P-lim chemostat, doubling time 12 h

Sequence	total protein half-life in vivo [1] [h]	total protein half-life in vivo [2] [h]	total protein half-life in vivo [3] [h]	total protein half-life in vivo [4] [h]	total protein half-life in vivo [5] [h]	total protein half-life in vivo [6] [h]	total protein half-life in vivo [7] [h]	total protein half-life in vivo [8] [h]	total protein half-life in vivo [9] [h]	total protein half-life in vivo [10] [h]	total protein half-life in vivo [11] [h]	total protein half-life in vivo [12] [h]
MGQVLPLVTRQGDRIAIVSGLRTPFARQATAFHGIPAVDLGKMVVGELLARSEIPAEVIEQLVFGQVVQMPEAPNIAREIVLGTGMNVHTDAYSVSRACATSFQAVANVAESLMAGTIRAGIAGGADSSSVLPIGVSKKLARVLVDVNKARTMSQRLKLFSRLRLRDLMPVPPAVAEYSTGLRMGDTAEQMAKTYGITREQQDALAHRSHQRAAQAWSDGKLKEEVMTAFIPPYKQPLVEDNNIRGNSSLADYAKLRPAFDRKHGTVTAANSTPLTDGAAAVILMTESRAKELGLVPLGYLRSYAFTAIDVWQDMLLGPAWSTPLALERAGLTMSDLTLIDMHEAFAAQTLANIQLLGSERFAREALGRAHATGEVDDSKFNVLGGSIAYGHPFAATGARMITQTLHELRRRGGGFGLVTACAAGGLGAAMVLEAE	5.81 ± 0.29	5.7 ± 0.78	6.04 ± 0.061	5.43 ± 0.24	2.94 ± 0.14	6.16 ± 0.1	12.3 ± 1.9	6.23 ± 0.13	12 ± 0.41	6.44 ± 0.075	–	–
MGRISSGGMMFKAITTVAALVIATSAMAQDDLTISSLAKGETTKAAFNQMVQGHKLPAWVMKGGTYTPAQTVTLGDETYQVMSACKPHDCGSQRIAVMWSEKSNQMTGLFSTIDEKTSQEKLTWLNVNDALSIDGKTVLFAALTGSLENHPDGFNFK [P0AD59]	5.71 ± 1	6.18 ± 0.25	6.285 ± 0.011	–	–	–	9.68 ± 1.2	5.85 ± 0.58	12.6 ± 0.36	5.4 ± 0.3	5.34 ± 0.85	12.9 ± 1
MGRKWANIVAKKTAKDGATSKIYAKFGVEIYAAAKQGEPDPELNTSLKFVIERAKQAQVPKHVIDKAIDKAKGGGDETFVQGRYEGFGPNGSMIIAETLTSNVNRTIANVRTIFNKKGGNIGAAGSVSYMFDNTGVIVFKGTDPDHIFEILLEAEVDVRDVTEEEGNIVIYTEPTDLHKGIAALKAAGITEFSTTELEMIAQSEVELSPEDLEIFEGLVDALEDDDDVQKVYHNVANL [P0A8A2]	4.981 ± 0.0067	4.11 ± 0.057	5.18 ± 1	4.17 ± 0.56	2.95 ± 0.35	5.79 ± 1.9	9.45 ± 0.47	4.55 ± 0.5	7.06 ± 0.55	5.02 ± 0.079	5.2 ± 0.11	9.37 ± 0.61
MGSDAKNLMSDGNVQIVKTGEVIGATQLTEGELIVEAGGRAENTVVTGAGWLKVATGGIAKCTQYGNNGTLSVSDGAIATDIVQSEGGAISLSTLATVNGRHPEGEFSVDKGYACGLLLENGGNLRVLEGHRAEKIILDQEGGLLVNGTTSAVVVDEGGELLVYPGGEASNCEINQGGVFMLAGKASDTLLAGGTMNNLGGEDSDTIVENGSIYRLGTDGLQLYSSGKTQNLSVNVGGRAEVHAGTLENAVIQGGTVILLSPTSADENFVVEEDRAPVELTGSVALLDGASMIIGYGAELQQSTITVQQGGVLILDGSTVKGDSVTFIVGNINLNGGKLWLITDAATHVQLKVKRLRGEGAICLQTSAKEISPDFINVKGEVTGDIHVEITDASRQTLCNALKLQPDEDGIGATLQPA	4.73 ± 0.33	0.86 ± 0.11	1.12 ± 0.029	0.827 ± 0.0095	1.15 ± 0.029	1.56 ± 0.18	2.44 ± 0.65	1.07 ± 0.041	1.32 ± 0.13	1.73 ± 0.34	4.99 ± 0.55	3.47 ± 1.2
MGSEISKKDITRLGFRSSLLQASFNYERMQAGGFTWAMLPILKKIYKDDKPGLSAAMKDNLEFINTHPNLVGFLMGLLISMEEKGENRDTIKGLKVALFGPIAGIGDAIFWFTLLPIMAGICSSFASQGNLLGPILFFAVYLLIFFLRVGWTHVGYSVGVKAIDKVRENSQMIARSATILGITVIGGLIASYVHINVVTSFAIDNTHSVALQQDFFDKVFPNILPMAYTLLMYYFLRVKKAHPVLLIGVTFVLSIVCSAFGIL	–	–	–	–	–	–	–	–	–	–	–	4.67
MGSQELQRKLGFWAVLAIAVGTTVGSGIFVSVGEVAKAAGTPWLTVLAFVIGGLIVIPQMCVYAELSTAYPENGADYVYLKNAGSRPLAFLSGWASFWANDAPSLSIMALAIVSNLGFLTPIDPLLGKFIAAGLIIAFMLLHLRSVEGGAAFQTLITIAKIIPFTIVIGLGIFWFKAENFAAPTTTAIGATGSFMALLAGISATSWSYTGMASICYMTGEIKNPGKTMPRALIGSCLLVLVLYTLLALVISGLMPFDKLANSETPISDALTWIPALGSTAGIFVAITAMIVILGSLSSCVMYQPRLEYAMAKDNLFFKCFGHVHPKYNTPDVSIILQGALGIFFIFVSDLTSLLGYFTLVMCFKNTLTFGSIIWCRKRDDYKPLWRTPAFGLMTTLAIASSLILVASTFVWAPIPGLICAVIVIATGLPAYAFWAKRSRQLNALS	–	–	–	–	3.26	–	–	–	–	–	–	–
